Data: publication PMC3189932, “Viral Double-Strand RNA-Binding Proteins Can Enhance Innate Immune Signaling by Toll-Like Receptor 3”

Legend:
R-cp = R-cp (Ross River virus, UniProt P13890 1-270); experiment: UV crosslinking; 4 mM Mg2+; 50 mM Tris-HCl pH 7.5, 4 mM MgCl2, 50 mM NaCl, 1 mM DTT; 400 ng protein, 1 pmol RNA; UV 1200 mJ 3 min then SDS-PAGE (crosslinking); nondenaturing stacked 5/20%; conditions: protein: recombinant; label: Cy5; hairpin, 11-bp stem, GNRA tetraloop
H-cp183 = H-cp183 (Hepatitis B virus, UniProt P03147 1-183); experiment: as above; conditions: protein: recombinant; chain copies: 2; label: Cy5; hairpin, 11-bp stem, GNRA tetraloop
B-cp = target: T1, B-cp (Brome mosaic virus, UniProt P03602 1-189); experiment: as above; conditions: protein: native; label: Cy5; hairpin, 11-bp stem, GNRA tetraloop
T1 sequence: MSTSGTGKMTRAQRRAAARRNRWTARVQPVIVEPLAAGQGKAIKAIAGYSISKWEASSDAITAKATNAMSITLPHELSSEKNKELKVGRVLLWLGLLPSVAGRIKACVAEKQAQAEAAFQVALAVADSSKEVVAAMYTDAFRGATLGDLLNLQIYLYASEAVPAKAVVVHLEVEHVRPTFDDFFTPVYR

H-cp149 = H-cp149 (Hepatitis B virus, UniProt P03147 1-149); experiment: UV crosslinking; 4 mM Mg2+; no shift; 50 mM Tris-HCl pH 7.5, 4 mM MgCl2, 50 mM NaCl, 1 mM DTT; 400 ng protein, 1 pmol RNA; UV 1200 mJ 3 min then SDS-PAGE (crosslinking); nondenaturing stacked 5/20%; conditions: protein: recombinant; chain copies: 2; label: Cy5; hairpin, 11-bp stem, GNRA tetraloop
Sequence of H-cp149 (P03147 1-149): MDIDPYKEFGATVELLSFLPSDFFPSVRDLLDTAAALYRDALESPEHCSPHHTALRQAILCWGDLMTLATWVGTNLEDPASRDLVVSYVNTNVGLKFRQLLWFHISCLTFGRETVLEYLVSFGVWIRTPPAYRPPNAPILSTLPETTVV

Sequence of R-cp (P13890 1-270): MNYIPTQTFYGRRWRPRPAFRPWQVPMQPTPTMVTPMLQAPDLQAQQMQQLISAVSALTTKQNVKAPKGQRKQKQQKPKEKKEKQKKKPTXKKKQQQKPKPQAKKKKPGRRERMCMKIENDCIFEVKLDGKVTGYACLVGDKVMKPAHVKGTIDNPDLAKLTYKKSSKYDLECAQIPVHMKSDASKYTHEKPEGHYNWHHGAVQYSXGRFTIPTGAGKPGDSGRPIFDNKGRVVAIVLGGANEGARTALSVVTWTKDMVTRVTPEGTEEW
Sequence of H-cp183 (P03147 whole entry): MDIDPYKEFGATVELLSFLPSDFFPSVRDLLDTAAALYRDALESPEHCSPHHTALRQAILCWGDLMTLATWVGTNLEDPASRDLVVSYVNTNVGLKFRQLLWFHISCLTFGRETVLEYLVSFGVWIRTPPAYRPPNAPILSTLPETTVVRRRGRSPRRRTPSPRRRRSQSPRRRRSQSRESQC

B1: SL26 (structured_RNA)
RNA: CCAAGUCAUUCGCAAGAGUGGCUUGG
**Q.** Does B1 bind (R-cp)?
**A.** Result: binds

**Q.** Does B1 bind (H-cp183)?
**A.** Result: binds

**Q.** Does B1 bind (B-cp)?
**A.** Result: binds

**Q.** Does B1 bind (H-cp149)?
**A.** Result: no binding
